From the supplement of paper PMC7877785
± gives the uncertainty stated by the source.

Test: self-splicing fitness, log relative to wild type (ln ratio); higher = more splicing; Tetrahymena group I intron in knt gene, E. coli kanamycin selection, DiMSum; sequences stand for … in CUCUCU…GGAGGGAAAAGUUAUCAGGCAUGCACCUGGUAGCUAGUCUUUAAACCAAUAGAUUGCAUCGGUUUAAAAGGCAAGACCGUCAAAUUGCGGGAAAGGGGUCAACAGCCGUUCAGUACCAAGUCUCAGGGGAAACUUUGAGAUGGCCUUGCAAAGGGUAUGGUAAUAAGCUGACGGACAUGGUCCUAACCACGCAGCCAAGUCCUAAGUCAACAGAUCUUCUGUUGAUAUGGAUGCAGUUCACAGACUAAAUGUCGGUCGGGGAAGAUGUAUUCUUCUCAUAAGAUAUAGUCGGACCUCUCCUUAAUGGGAGCUAGCGGAUGAAGUGAUGCAACACUGGAGCCGCUGGGAACUAAUUUGUAUGCGAAAGUAUAUUGAUUAGUUUUGGAGUACUCGUGGUCG
Outline: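 The eight P1ex-region nucleotides of an intron in the knt kanamycin-resistance gene on pET-22b(+) were all randomised and the library put into E. coli BL21(DE3). Six replicate transformations were grown overnight at 37°C or 30°C on LB agar with or without 25 μg/mL kanamycin, together with 100 μg/mL carbenicillin, 50 μM IPTG and 0.2% rhamnose. Colonies were pooled and amplicon-sequenced on an Illumina HiSeq 2500. Fitness from DiMSum is the error-weighted combination of wild-type-normalised replicate fold changes, kanamycin over none.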

Row | Sequence | self-splicing fitness (ln) (30 °C) | self-splicing fitness (ln) (37 °C)
1 | AGGCAGCAAUAUUACGCGCG | -0.446 ± 0.12 | -0.358 ± 0.14
2 | CGGUAGCAAUAUUACGUAAA | -1.14 ± 0.08 | -2.33 ± 0.17
3 | CCAUAGCAAUAUUACGCAAC | -2.54 ± 0.28 | –
4 | AUCCAGCAAUAUUACGCAGG | -2.84 ± 0.3 | -2.7 ± 0.37
5 | ACGUAGCAAUAUUACGAGUC | -3.3 ± 0.4 | -3.2 ± 0.35
6 | UUGGAGCAAUAUUACGGGCA | – | -1.45 ± 0.35
7 | AGACAGCAAUAUUACGAAUU | -2.74 ± 0.1 | -1.27 ± 0.11
8 | AUAGAGCAAUAUUACGCUCU | -2.65 ± 0.28 | -1.32 ± 0.42
9 | AAAUAGCAAUAUUACGGUGU | -2.83 ± 0.13 | -2.05 ± 0.15
10 | CUGCAGCAAUAUUACGUGUA | -3.82 ± 0.23 | -2.63 ± 0.16
11 | CGGAAGCAAUAUUACGCGAU | -3.28 ± 0.28 | -2.05 ± 0.33
12 | ACUGAGCAAUAUUACGCUCC | -2.62 ± 0.45 | -1.18 ± 0.27
13 | GAGAAGCAAUAUUACGGCAU | -0.391 ± 0.07 | 0.567 ± 0.11
14 | UGAGAGCAAUAUUACGAUCG | -2.1 ± 0.13 | -2.12 ± 0.17
15 | GUCCAGCAAUAUUACGAACG | -1.52 ± 0.13 | -0.855 ± 0.16
16 | UCAUAGCAAUAUUACGAAAG | – | -1.84 ± 0.47
17 | GUCGAGCAAUAUUACGUAGU | -2.34 ± 0.12 | -1.47 ± 0.11
18 | CCGAAGCAAUAUUACGCGGU | -3.64 ± 0.22 | -2.11 ± 0.2
19 | AUGUAGCAAUAUUACGAAGG | -3.73 ± 0.34 | -2.61 ± 0.3
20 | GGGAAGCAAUAUUACGAUUG | -3.59 ± 0.21 | -3.25 ± 0.3
21 | CAUAAGCAAUAUUACGCCAG | -1.42 ± 0.14 | -0.932 ± 0.19
22 | AGGCAGCAAUAUUACGAUCU | 0.0214 ± 0.086 | 0.2 ± 0.12
23 | AACUAGCAAUAUUACGCUAA | -2.06 ± 0.11 | -1.51 ± 0.12
24 | UGAUAGCAAUAUUACGACCU | -1.09 ± 0.17 | -0.0258 ± 0.18

Row | Sequence | self-splicing fitness (ln) (30 °C) | self-splicing fitness (ln) (37 °C)
25 | GCUUAGCAAUAUUACGCGCA | -1.37 ± 0.16 | 0.00629 ± 0.17
26 | UACAAGCAAUAUUACGCUGA | -2.32 ± 0.13 | -1.78 ± 0.13
27 | GGGCAGCAAUAUUACGGAUU | -0.98 ± 0.12 | -0.0797 ± 0.1
28 | CAUCAGCAAUAUUACGCCAC | -2.77 ± 0.46 | -2.22 ± 0.43
29 | ACACAGCAAUAUUACGGAAA | -3.13 ± 0.26 | -2.5 ± 0.22
30 | UACUAGCAAUAUUACGUUAG | -3.54 ± 0.19 | -2.66 ± 0.23
31 | ACUUAGCAAUAUUACGUAUG | -3.35 ± 0.22 | -2.2 ± 0.16
32 | AUAAAGCAAUAUUACGACCG | -0.25 ± 0.13 | -0.14 ± 0.18
33 | CAAGAGCAAUAUUACGGCUC | -3.78 ± 0.24 | -2.27 ± 0.32
34 | UCUCAGCAAUAUUACGCCGU | -2.55 ± 0.25 | -1.56 ± 0.22
35 | UCUCAGCAAUAUUACGUACC | -3.25 ± 0.46 | -1.69 ± 0.25
36 | GACUAGCAAUAUUACGCCUG | -0.826 ± 0.12 | -0.091 ± 0.14
37 | CAAUAGCAAUAUUACGGACG | -0.294 ± 0.058 | 0.146 ± 0.075
38 | UCUCAGCAAUAUUACGGAGC | -2.1 ± 0.47 | -2.27 ± 0.47
39 | GAAGAGCAAUAUUACGGUAU | -3.7 ± 0.23 | -2.46 ± 0.31
40 | UACCAGCAAUAUUACGGAGC | -3 ± 0.15 | -3.22 ± 0.27
41 | UAUAAGCAAUAUUACGAGGG | -3.42 ± 0.3 | –
42 | GAGAAGCAAUAUUACGGACU | -0.326 ± 0.091 | -0.101 ± 0.11
43 | GCUAAGCAAUAUUACGAUGU | -1.19 ± 0.072 | -0.496 ± 0.087
44 | AAGUAGCAAUAUUACGGAAU | -3.66 ± 0.2 | -1.52 ± 0.16
45 | ACUUAGCAAUAUUACGGAGU | -3.58 ± 0.47 | -3.1 ± 0.3
46 | ACCGAGCAAUAUUACGUAGG | -3.76 ± 0.2 | -2.79 ± 0.24
47 | UGUAAGCAAUAUUACGGCAU | -1.48 ± 0.12 | -0.402 ± 0.11
48 | UCUCAGCAAUAUUACGCGAG | -3.73 ± 0.37 | -0.582 ± 0.15
